Here are results for four molecules from US20140087995A1 (published 2014).

Numbered stars: 1 amine (or outer) side, 2 acyl side, 3 side chain; on linkers, the order of the positions; unused ones are H or OH. Bridge positions count the residues as written; N and C are the ends. Side chains are listed from the residue outwards. Ends that are not written are not given here. * marks the point of attachment. C20 diacid = O=C(O)CCCCCCCCCCCCCCCCCCC(=O)*; γGlu = O=C(O)[C@H](CCC(=O)[*:2])N[*:1]; AEEA = NCCOCCOCC(=O)O

First the molecules themselves.
B1: N^α1N^α1-[(4S)-4-carboxy-4-(19-carboxynonadecanoylamino)butanoyl]-[Glu14,Arg17,Pro21,Pro27,Glu35]-h-amylin (peptide)
peptide: {C20 diacid-γGlu}-KCNTATCATQRLAEFLRHSSPNFGAIPSSTNVGSETY-NH2
modifications: disulfide 2-7
SMILES: CC[C@H](C)[C@H](NC(=O)[C@H](C)NC(=O)CNC(=O)[C@H](Cc1ccccc1)NC(=O)[C@H](CC(N)=O)NC(=O)[C@@H]1CCCN1C(=O)[C@H](CO)NC(=O)[C@H](CO)NC(=O)[C@H](Cc1c[nH]cn1)NC(=O)[C@H](CCCNC(=N)N)NC(=O)[C@H](CC(C)C)NC(=O)[C@H](Cc1ccccc1)NC(=O)[C@H](CCC(=O)O)NC(=O)[C@H](C)NC(=O)[C@H](CC(C)C)NC(=O)[C@H](CCCNC(=N)N)NC(=O)[C@H](CCC(N)=O)NC(=O)[C@@H](NC(=O)[C@H](C)NC(=O)[C@@H]1CSSC[C@H](NC(=O)[C@H](CCCCN)NC(=O)CC[C@H](NC(=O)CCCCCCCCCCCCCCCCCCC(=O)O)C(=O)O)C(=O)N[C@@H](CC(N)=O)C(=O)N[C@@H]([C@@H](C)O)C(=O)N[C@@H](C)C(=O)N[C@@H]([C@@H](C)O)C(=O)N1)[C@@H](C)O)C(=O)N1CCC[C@H]1C(=O)N[C@@H](CO)C(=O)N[C@@H](CO)C(=O)N[C@H](C(=O)N[C@@H](CC(N)=O)C(=O)N[C@H](C(=O)NCC(=O)N[C@@H](CO)C(=O)N[C@@H](CCC(=O)O)C(=O)N[C@H](C(=O)N[C@@H](Cc1ccc(O)cc1)C(N)=O)[C@@H](C)O)C(C)C)[C@@H](C)O
notes: Acylated analogue of human amylin; also called compound 22
B2: N^ε1-[2-[2-[2-[[(4S)-4-carboxy-4-(19-carboxynonadecanoylamino)butanoyl]amino]ethoxy]ethoxy]acetyl]-[Arg17,Pro21,Pro27,Glu35]-h-amylin (peptide)
peptide: K([AEEA-γGlu-C20 diacid])CNTATCATQRLANFLRHSSPNFGAIPSSTNVGSETY-NH2
modifications: disulfide 2-7; N-terminus assumed
SMILES: CC[C@H](C)[C@H](NC(=O)[C@H](C)NC(=O)CNC(=O)[C@H](Cc1ccccc1)NC(=O)[C@H](CC(N)=O)NC(=O)[C@@H]1CCCN1C(=O)[C@H](CO)NC(=O)[C@H](CO)NC(=O)[C@H](Cc1c[nH]cn1)NC(=O)[C@H](CCCNC(=N)N)NC(=O)[C@H](CC(C)C)NC(=O)[C@H](Cc1ccccc1)NC(=O)[C@H](CC(N)=O)NC(=O)[C@H](C)NC(=O)[C@H](CC(C)C)NC(=O)[C@H](CCCNC(=N)N)NC(=O)[C@H](CCC(N)=O)NC(=O)[C@@H](NC(=O)[C@H](C)NC(=O)[C@@H]1CSSC[C@H](NC(=O)[C@@H](N)CCCCNC(=O)COCCOCCNC(=O)CC[C@H](NC(=O)CCCCCCCCCCCCCCCCCCC(=O)O)C(=O)O)C(=O)N[C@@H](CC(N)=O)C(=O)N[C@@H]([C@@H](C)O)C(=O)N[C@@H](C)C(=O)N[C@@H]([C@@H](C)O)C(=O)N1)[C@@H](C)O)C(=O)N1CCC[C@H]1C(=O)N[C@@H](CO)C(=O)N[C@@H](CO)C(=O)N[C@H](C(=O)N[C@@H](CC(N)=O)C(=O)N[C@H](C(=O)NCC(=O)N[C@@H](CO)C(=O)N[C@@H](CCC(=O)O)C(=O)N[C@H](C(=O)N[C@@H](Cc1ccc(O)cc1)C(N)=O)[C@@H](C)O)C(C)C)[C@@H](C)O
notes: Acylated analogue of human amylin; also called compound 26
B3: N^ε1-[(4S)-4-carboxy-4-(19-carboxynonadecanoylamino)butanoyl]-[Arg17,Pro21,Pro27,Glu35]-h-amylin (peptide)
peptide: K([γGlu-C20 diacid])CNTATCATQRLANFLRHSSPNFGAIPSSTNVGSETY-NH2
modifications: disulfide 2-7; N-terminus assumed
SMILES: CC[C@H](C)[C@H](NC(=O)[C@H](C)NC(=O)CNC(=O)[C@H](Cc1ccccc1)NC(=O)[C@H](CC(N)=O)NC(=O)[C@@H]1CCCN1C(=O)[C@H](CO)NC(=O)[C@H](CO)NC(=O)[C@H](Cc1c[nH]cn1)NC(=O)[C@H](CCCNC(=N)N)NC(=O)[C@H](CC(C)C)NC(=O)[C@H](Cc1ccccc1)NC(=O)[C@H](CC(N)=O)NC(=O)[C@H](C)NC(=O)[C@H](CC(C)C)NC(=O)[C@H](CCCNC(=N)N)NC(=O)[C@H](CCC(N)=O)NC(=O)[C@@H](NC(=O)[C@H](C)NC(=O)[C@@H]1CSSC[C@H](NC(=O)[C@@H](N)CCCCNC(=O)CC[C@H](NC(=O)CCCCCCCCCCCCCCCCCCC(=O)O)C(=O)O)C(=O)N[C@@H](CC(N)=O)C(=O)N[C@@H]([C@@H](C)O)C(=O)N[C@@H](C)C(=O)N[C@@H]([C@@H](C)O)C(=O)N1)[C@@H](C)O)C(=O)N1CCC[C@H]1C(=O)N[C@@H](CO)C(=O)N[C@@H](CO)C(=O)N[C@H](C(=O)N[C@@H](CC(N)=O)C(=O)N[C@H](C(=O)NCC(=O)N[C@@H](CO)C(=O)N[C@@H](CCC(=O)O)C(=O)N[C@H](C(=O)N[C@@H](Cc1ccc(O)cc1)C(N)=O)[C@@H](C)O)C(C)C)[C@@H](C)O
notes: Acylated analogue of human amylin; also called compound 27
B4: N^ε1-[2-[2-[2-[[2-[2-[2-[[(4S)-4-carboxy-4-(19-carboxynonadecanoylamino)butanoyl]amino]ethoxy]ethoxy]acetyl]amino]ethoxy]ethoxy]acetyl]-[Arg17,Pro21,Pro27,Glu35 … (peptide)
peptide: K([AEEA-AEEA-γGlu-C20 diacid])CNTATCATQRLANFLRHSSPNFGAIPSSTNVGSETY-NH2
modifications: disulfide 2-7; N-terminus assumed
SMILES: CC[C@H](C)[C@H](NC(=O)[C@H](C)NC(=O)CNC(=O)[C@H](Cc1ccccc1)NC(=O)[C@H](CC(N)=O)NC(=O)[C@@H]1CCCN1C(=O)[C@H](CO)NC(=O)[C@H](CO)NC(=O)[C@H](Cc1c[nH]cn1)NC(=O)[C@H](CCCNC(=N)N)NC(=O)[C@H](CC(C)C)NC(=O)[C@H](Cc1ccccc1)NC(=O)[C@H](CC(N)=O)NC(=O)[C@H](C)NC(=O)[C@H](CC(C)C)NC(=O)[C@H](CCCNC(=N)N)NC(=O)[C@H](CCC(N)=O)NC(=O)[C@@H](NC(=O)[C@H](C)NC(=O)[C@@H]1CSSC[C@H](NC(=O)[C@@H](N)CCCCNC(=O)COCCOCCNC(=O)COCCOCCNC(=O)CC[C@H](NC(=O)CCCCCCCCCCCCCCCCCCC(=O)O)C(=O)O)C(=O)N[C@@H](CC(N)=O)C(=O)N[C@@H]([C@@H](C)O)C(=O)N[C@@H](C)C(=O)N[C@@H]([C@@H](C)O)C(=O)N1)[C@@H](C)O)C(=O)N1CCC[C@H]1C(=O)N[C@@H](CO)C(=O)N[C@@H](CO)C(=O)N[C@H](C(=O)N[C@@H](CC(N)=O)C(=O)N[C@H](C(=O)NCC(=O)N[C@@H](CO)C(=O)N[C@@H](CCC(=O)O)C(=O)N[C@H](C(=O)N[C@@H](Cc1ccc(O)cc1)C(N)=O)[C@@H](C)O)C(C)C)[C@@H](C)O
notes: Acylated analogue of human amylin; also called compound 25

In one assay the target is T1, rat amylin receptor (rat calcitonin receptor + rat RAMP 3) (rat, UniProt P32214 25-516; Q9JJ73 23-147).
T1 construct: whole, on cells; Cell membranes of transiently transfected BHK tk'ts 13 cells (Assay VI); also called rAmylin-R; rat amylin 3(a) receptor
T1 sequence (looked up) 1: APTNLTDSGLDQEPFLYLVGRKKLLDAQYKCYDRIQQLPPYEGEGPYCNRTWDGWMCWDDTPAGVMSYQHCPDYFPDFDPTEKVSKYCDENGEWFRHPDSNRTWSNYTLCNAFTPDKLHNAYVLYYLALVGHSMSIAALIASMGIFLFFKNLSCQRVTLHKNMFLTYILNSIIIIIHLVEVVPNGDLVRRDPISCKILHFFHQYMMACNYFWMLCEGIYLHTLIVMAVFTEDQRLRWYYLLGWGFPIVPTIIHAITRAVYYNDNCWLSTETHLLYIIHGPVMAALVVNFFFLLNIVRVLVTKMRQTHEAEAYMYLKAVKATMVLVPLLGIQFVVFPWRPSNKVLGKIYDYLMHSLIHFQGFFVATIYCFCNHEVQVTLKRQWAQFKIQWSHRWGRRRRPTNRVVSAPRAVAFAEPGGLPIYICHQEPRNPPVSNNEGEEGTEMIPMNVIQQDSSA
T1 sequence (looked up) 2: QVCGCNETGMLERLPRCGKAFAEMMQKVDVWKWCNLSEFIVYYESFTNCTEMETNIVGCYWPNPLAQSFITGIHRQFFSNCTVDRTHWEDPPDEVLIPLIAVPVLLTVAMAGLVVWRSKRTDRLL
The assay can be described thus: SPA competition vs 125I-rat amylin, membranes with rat CTR + rat RAMP3 (Assay VI).
Regarding B1, the IC50 is 2.19 nM.
Same read-out and setting: next, B2: 0.491 nM; B3: 0.614 nM; B4: 3.48 nM.

Another assay deals with T2, human calcitonin receptor (human, UniProt P30988 25-474).
T2 construct: whole, on cells; Cell membranes of a stably transfected BHK cell line (Assay VII); also called hCTR; hCT
T2 sequence (looked up): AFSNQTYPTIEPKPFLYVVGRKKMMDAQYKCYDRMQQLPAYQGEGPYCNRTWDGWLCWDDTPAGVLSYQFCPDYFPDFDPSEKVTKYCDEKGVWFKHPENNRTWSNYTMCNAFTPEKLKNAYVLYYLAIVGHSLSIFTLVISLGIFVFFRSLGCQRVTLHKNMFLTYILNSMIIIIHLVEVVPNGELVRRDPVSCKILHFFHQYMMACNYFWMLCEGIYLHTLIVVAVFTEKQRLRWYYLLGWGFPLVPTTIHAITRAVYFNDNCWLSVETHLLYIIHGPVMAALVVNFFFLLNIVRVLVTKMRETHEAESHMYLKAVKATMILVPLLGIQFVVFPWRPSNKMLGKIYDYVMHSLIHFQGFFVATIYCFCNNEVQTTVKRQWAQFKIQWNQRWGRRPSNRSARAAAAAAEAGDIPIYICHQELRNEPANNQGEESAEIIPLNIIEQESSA
The experiment in a line: ratio IC50 human calcitonin receptor / IC50 human amylin receptor. As for the experimental part:
The resulting pellet was resuspended, homogenized and centrifuged (20.000 rpm, 15 min) in a buffer containing 20 mM Na-HEPES and 0.1 mM EDTA (pH 7.4, buffer 2). The resulting pellet was resuspended in buffer 2 and protein concentration was measured (BCA protein Assay, Pierce). The homogenate was kept cold during the whole procedure. The membranes were kept at −80° C. until use. The assay was performed in a 384 well Optiplate (PerkinElmer) in a total volume of 40 ul. Membranes were mixed with SPA beads. Final concentration of membranes 35 ng/μL final and SPA beads was 0.05 mg/well. Test-compounds were dissolved in DMSO and further diluted in assay buffer (50 mM Hepes, pH 7.4, 1 mM CaCl2, 5 mM MgCl₂, 0.1% OA and 0.02% Tween20). […] The final mixture was incubated with shaking at 400 rpm for 120 min at 25° C. prior to centrifugation (1500 rpm, 10 min). Samples were analyzed on TopCounter™ (Packard). The IC₅₀ was calculated using (one site binding competition analysis) GraphPad Prism5 as a measure of receptor affinity.
Membranes were prepared in the following way; the cells were rinsed with PBS and incubated with Versene for approximately 5 min before harvesting. The cells were flushed with PBS and the cell-suspension was centrifuged for 5 min at 1000 rpm. Cells were homogenized (Ultrathurrax) in a buffer containing 20 mM Na-HEPES and 10 mM EDTA (pH 7.4) and centrifuged at 20.000 rpm for 15 min. The resulting pellet was resuspended, homogenized and centrifuged (20.000 rpm, 15 min) in a buffer containing 20 mM Na-HEPES and 0.1 mM EDTA (pH 7.4, buffer 2). The resulting pellet was resuspended in buffer 2 and protein concentration was measured (BCA protein Assay, Pierce). The homogenate was kept cold during the whole procedure. The membranes were kept at −80° C. until use. Assay was performed in a 384 well Optiplate (PerkinElmer) in a total volume of 40 ul. Membranes were mixed with SPA beads.
With B1, the “Ratio hCT/hAmylin binding” value came out at 12.3.
The same measure, in the same setting: next, B2: 47.5.
Take B3: the “Ratio hCT/hAmylin binding” value was found to be 41.3.
For the molecule B4, the “Ratio hCT/hAmylin binding” value turned out to be 56.5.

The next assay deals with T3, rat calcitonin receptor (rat, UniProt P32214 25-516).
T3 construct: whole, on cells; Cell membranes of transiently transfected BHK tk'ts 13 cells (Assay VIII); also called rCTR; rCT
T3 sequence (looked up): T1 sequence (looked up) 1
The experiment in a line: SPA competition vs 125I-calcitonin, membranes with rat CTR (Assay VIII).
Regarding B1, the IC50 is 62.5 nM.
For B2, the IC50 came out at 152 nM.
Consider B3, for which the 50% inhibitory concentration (IC50) was found to be 90.2 nM.
On to B4, for which the IC50 was 131 nM.

The next assay addresses T3, rat calcitonin receptor. The assay can be described thus: ratio IC50 rat calcitonin receptor / IC50 rat amylin receptor.
For B1, the “Ratio rCT/rAmylin binding” value turned out to be 28.5.
In the case of B2, the “Ratio rCT/rAmylin binding” value came out at 309.
As to B3, the “Ratio rCT/rAmylin binding” value worked out at 147.
As to B4, the “Ratio rCT/rAmylin binding” value was found to be 37.7.
